Experimental data: US20040076958

T1: AA21 synthetic peptide (N21 with two conserved glycines replaced by alanine)
T1 chain: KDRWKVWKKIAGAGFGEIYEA


Key:
[1] = target: recombinant human tau (1-441), full length tau, P10636
[2] = target: T1, AA21 synthetic peptide (N21 with two …)

Chain of recombinant human tau (1-441), full length tau, P10636 (P10636 whole entry, looked up, tested part not stated): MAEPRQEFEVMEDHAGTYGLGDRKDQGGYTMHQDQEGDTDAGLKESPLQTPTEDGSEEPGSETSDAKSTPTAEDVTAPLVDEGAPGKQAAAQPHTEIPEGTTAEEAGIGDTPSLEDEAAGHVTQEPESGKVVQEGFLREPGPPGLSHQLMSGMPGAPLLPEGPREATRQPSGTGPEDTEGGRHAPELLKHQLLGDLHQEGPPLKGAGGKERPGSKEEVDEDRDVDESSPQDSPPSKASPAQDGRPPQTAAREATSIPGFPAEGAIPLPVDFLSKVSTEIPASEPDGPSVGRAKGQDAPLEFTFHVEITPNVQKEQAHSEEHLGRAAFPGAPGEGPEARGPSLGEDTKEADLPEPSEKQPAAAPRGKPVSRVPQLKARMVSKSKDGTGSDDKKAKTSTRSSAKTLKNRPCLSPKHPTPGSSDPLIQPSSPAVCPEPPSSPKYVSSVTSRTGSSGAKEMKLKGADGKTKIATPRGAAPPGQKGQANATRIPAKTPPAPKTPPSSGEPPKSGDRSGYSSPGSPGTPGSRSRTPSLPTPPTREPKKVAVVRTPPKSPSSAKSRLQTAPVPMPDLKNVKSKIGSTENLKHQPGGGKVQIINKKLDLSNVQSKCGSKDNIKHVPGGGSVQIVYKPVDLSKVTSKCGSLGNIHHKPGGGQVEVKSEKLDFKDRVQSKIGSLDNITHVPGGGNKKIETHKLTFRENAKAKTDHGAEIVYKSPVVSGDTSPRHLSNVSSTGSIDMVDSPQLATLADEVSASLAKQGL

Protein | tau phosphorylation in vitro ([gamma-32P]ATP, SDS-PAGE, autoradiography) [1] | time at which tau phosphorylation was saturated, pH 6.5 [1] [min at pH 6.5] | time at which tau phosphorylation was saturated, pH 7.5 [1] | BDTK phosphorylation and tau phosphorylation in vitro (AA21-BDTK, AA21-tau) [2] | tau phosphorylation [1]
His-tagged BDTK(38-319), BDTK kinase domain (protein) KKIGGGGFGEIYEAMDLLTRENVALKVESAQQPKQVLKMEVAVLKKLQGKDHVCRFIGCGRNEKFNYVVMQLQGRNLADLRRSQPRGTFTLSTTLRLGKQILESIEAIHSVGFLHRDIKPSNFAMGRLPSTYRKCYMLDFGLARQYTNTTGDVRPPRNVAGFRGTVRYASVNAHKNREMGRHDDLWSLFYMLVEFAVGQLPWRKIKDKEQVGMIKEKYEHRMLLKHMPSEFHLFLDHIASLDYFTKPDYQLIMSVFENSMKERGIAENEAFDWEKAGTDALL | did phosphorylate tau protein as well as BDTK itself | 120 | tau phosphorylation was saturated at 60 min at pH 7.5 |  | 
Brain Derived Tau Kinase (BDTK) (protein) MQCLAAALKDETNMSGGGEQADILPANYVVKDRWKVVKKIGGGGFGEIYEAMDLLTRENVALKVESAQQPKQVLKMEVAVLKKLQGKDHVCRFIGCGRNEKFNYVVMQLQGRNLADLRRSQPRGTFTLSTTLRLGKQILESIEAIHSVGFLHRDIKPSNFAMGRLPSTYRKCYMLDFGLARQYTNTTGDVRPPRNVAGFRGTVRYASVNAHKNREMGRHDDLWSLFYMLVEFAVGQLPWRKIKDKEQVGMIKEKYEHRMLLKHMPSEFHLFLDHIASLDYFTKPDYQLIMSVFENSMKERGIAENEAFDWEKAGTDALLSTSTSTPPQQNTRQTAAMFGVVNVTPVPGDLLRENTEDVLQGEHLSDQENAPPILPGRPSEGLGPSPHLVPHPGGPEAEVWEETDVNRNKLRINIGKSPCVEEEQSRGMGVPSSPVRAPPDSPTTPVRSLRYRRVNSPESERLSTADGRVELPERRSRMDLPGSPSRQACSSQPAQMLSVDTGHADRQASGRMDVSASVEQEALSNAFRSVPLAEEEDFDSKEWVIIDKETELKDFPPGAEPSTSGTTDEEPEELRPLPEEGEERRRLGAEPTVRPRGRSMQALAEEDLQHLPPQPLPPQLSQGDGRSETSQPPTPGSPSHSPLHSGPRPRRRESDPTGPQRQVFSVAPPFEVNGLPRAVPLSLPYQDFKRDLSDYRERARLLNRVRRVGFSHMLLTTPQVPLAPVQPQANGKEEEEEEEEDEEEEEEDEEEEEEEEEEEEEEEEEEEEEEEAAAAVALGEVLGPRSGSSSEGSERSTDRSQEGAPSTLLADDQKESRGRASMADGDLEPEEGSKTLVLVSPGDMKKSPVTAELAPDPDLGTLAALTPQHERPQPTGSQLDVSEPGTLSSVLKSEPKPPGPGAGLGAGTVTTGVGGVAVTSSPFTKVERTFVHIAEKTHLNVMSSGGQALRSEEFSAGGELGLELASDGGAVEEGARAPLENGLALSGLNGAEIEGSALSGAPRETPSEMATNSLPNGPALADGPAPVSPLEPSPEKVATISPRRHAMPGSRPRSRIPVLLSEEDTGSEPSGSLSAKERWSKRARPQQDLARLVMEKRQGRLLLRLASGASSSSSEEQRRASETLSGTGSEEDTPASEPAAALPRKSGRAAATRSRIPRPIGLRMPMPVAAQQPASRSHGAAPALDTAITSRLQLQTPPGSATAADLRPKQPPGRGLGPGRAQAGARPPAPRSPRLPASTSAARNASASPRSQSLRRESPSPSHQARPGVPPPRGVPPARAQPDGTPSPGGSKKGPRGKLQAQRATTKGRAGGAEGRAGAR |  |  |  | AA21 mutated peptide rather increased both BDTK (AA21-BDTK, from 30 to 300 )µM) and tau phosphorylation (AA21-tau, from 30 µM to 1 µM) in dose response manner | Full length BDTK (SEQ ID NO:1), and isolated BDTK kinase domain (amino acids 38-319, SEQ ID NO:4) are able to phosphorylate tau
